What was measured:
[1] = target: LlAdhA (Lactococcus lactis, UniProt Q9CEN0, Y50F/N110S/I212T/L264V); assay: NADH consumption at […] nm; conditions: read-out: LlAdhA^29C8 / KM; 200 µM NADH; 100 mM Tris pH 7, 1 mM DTT; 25°C
[2] = system: O=Cc1ccc(CO)o1; assay: purified protein; conditions: 200 µM NADH, 100 mM Tris pH 7, 1 mM DTT, 25°C
[3] = system: CC=O; assay: purified protein; conditions: 200 µM NADH, 100 mM Tris pH 7, 1 mM DTT, 25°C
[4] = system: CC(C)C=O; assay: purified protein; conditions: 200 µM NADH, 100 mM Tris pH 7, 1 mM DTT, 25°C
[5] = system: O=CC=Cc1ccccc1; assay: purified protein; assay type: biochemical, Lactococcus lactis; conditions: 200 µM NADH, 100 mM Tris pH 7, 1 mM DTT, 25°C
[6] = system: O=Cc1ccco1; assay: purified protein; assay type: biochemical, Lactococcus lactis; conditions: 200 µM NADH, 100 mM Tris pH 7, 1 mM DTT, 25°C

Row | Compound | Km [1] | Km [2] | kcat [2] | kcat/Km [2] | Km [3] | kcat [3] | kcat/Km [3] | Km [4] | kcat [4] | kcat/Km [4] | Km [5] | kcat [5] | kcat/Km [5] | Km [6] | kcat [6] | kcat/Km [6]
1 | O=Cc1ccco1 [2-furaldehyde] | 200 µM |  |  |  |  |  |  |  |  |  |  |  |  |  |  | 
2 | LlAdhA (Lactococcus lactis subsp. lactis Il1403) |  | 22 mM | 19 s⁻¹ | 880 M⁻¹ s⁻¹ | 0.4 mM | 35 s⁻¹ | 94000 M⁻¹ s⁻¹ | 12 ± 1 mM | 30 ± 1 s⁻¹ | 2800 ± 200 M⁻¹ s⁻¹ | 0.7 mM | 27 s⁻¹ | 39000 M⁻¹ s⁻¹ | 0.39 mM | 22 s⁻¹ | 57000 M⁻¹ s⁻¹
3 | LlAdhA (Lactococcus lactis subsp. lactis Il1403; I212T/L264V/N110S/Y50F) |  | 0.57 mM | 29 s⁻¹ | 51000 M⁻¹ s⁻¹ | 0.92 mM | 58 s⁻¹ | 63000 M⁻¹ s⁻¹ | 0.68 ± 0.07 mM | 300 ± 4 s⁻¹ | 440000 ± 50000 M⁻¹ s⁻¹ |  |  |  |  |  | 
4 | LlAdhA (Lactococcus lactis subsp. lactis Il1403; I212T/L264V/Y50F) |  | 0.67 mM | 23 s⁻¹ | 34000 M⁻¹ s⁻¹ | 0.5 mM | 31 s⁻¹ | 57000 M⁻¹ s⁻¹ | 1.70 ± 0.01 mM | 140 ± 1 s⁻¹ | 82000 ± 1000 M⁻¹ s⁻¹ |  |  |  |  |  | 
5 | LlAdhA (Lactococcus lactis subsp. lactis Il1403; L264V/Y50F) |  |  |  |  |  |  |  | 1.6 ± 0.2 mM | 50 ± 1 s⁻¹ | 32000 ± 4000 M⁻¹ s⁻¹ |  |  |  |  |  | 
